Results published in patent publication US20130273553A9, “STABILIZATION OF CYCLIC PEPTIDE STRUCTURES” (priority 2007, published 2013).

How the values were obtained:
BL21-CP cells = assay: Bacterial viability (survival) assay with and without MMC; assay type: cell-based, E. coli; settings: one hour
Description: (§1) FIG. 21. Biological Activity of L2 Lariat and Cyclic Peptide.
FIG. 22. […] Survival assay for BL21-CP cells treated synthetic linear L2 peptide. Cell survival is reported relative to the untreated control.
We performed cell viability assays as described by Lin and Little (Lin, L. L. & Little, J. W. (1988) Bacteriol. 170:2163-2173). For assays where L2 lariat is expressed from pET28b plasmid, we cultured BL21(DE3)-CP containing pETIL-L2 or pETIL-01 to an OD600 of 0.4 in LB-KAN at 37° C. We split the samples in two and induced one sample with 1 mM IPTG for 1 hour and left the other the other sample uninduced. […] We removed 10 μL and diluted it […] in ice cold LB (1 mL) for a zero time point control. We incubated the remaining sample at 37° C. for 1 hour and then removed 10 μL and diluted 1000-fold into 1 mL ice-cold LB. We plated a 60 μl aliquot from the 0 and 1 hour samples on LB plates and incubated the plates at 37° C. overnight.

[1] = Amount of lactone-cyclized L2 lariat, ESI-TOF MS and Na18OH cleavage; assay type: physicochemical
Source text: FIG. 17. Analysis of L2 Lariat. […] (i) Yeast growth on nonselective His^−,Trp^− glucose media. […] (i) Lariat cyclized through a lactone bond. (ii) Lariat cleaved prior to Na^18OH treatment.
FIG. 20. Quantification of Lariat Prior to MS analysis. (a) Analysis of ^18O incorporation at the tyrosine carboxylic acid at position (IN−1). Trypsin digest of the Na^18OH treated lariat produces a peptide fragment containing tyrosine at position (IN−1) ([…]). The ^16O product has a calculated mass of 966.420 m/z and the ^18O product has a calculated mass of 968.420 m/z. (b) Mass spectrometry analysis of […] peptide fragment from the Na^16OH or Na^18OH treated samples over layed with the theoretical isotope distribution (MS-ISOTOPE software). In the Na^18OH treated sample there is a large deviation from the theoretical distribution indicating the presence of more than one peptide. […] The 1+ and 2+ charged fragments were analyzed and similar results were observed. Only the 1+ charge is shown. (d) Overlay of the sum of the calculated contributions of the ^18O and […] on the observed […] peptide fragment spectrum. (e) Analysis of ^18O incorporation at the serine side chain at position (IC+1). Trypsin digest of the Na^18OH treated lariat produces a peptide fragment containing serine at position (IC+1) ([…]). The mass of this fragment is 2590.352 m/z corresponding to a product 1 Da heavier than the predicted ^18O incorporated product. A 1 Da shift can be attributed to deamidation of asparagine. […] The 2+, 3+4+and 5+charged fragments were analyzed and similar results were obtained. […] (h) Overlay of the sum of the calculated contributions of the ^18O and ^16O peptides on the observed […] peptide fragment spectrum.
We used LC-ESI-TOF MS to confirm the molecular weight of the His-tag lariat purified from E. coli. To confirm the presence of the lariat lactone prior to MS analysis, we treated His-tag lariat with 0.5 M Na^18OH, purified the products using reverse-phase HPLC, digested them with trypsin, and analyzed the molecular weight of the trypsin fragments using LC-ESI-TOF MS. […]

LexA = LexA (Escherichia coli, UniProt P0A7C2); settings: BL21-CP cells expressing the lariat, 0.1 μg/mL MMC, 0-3 hours
Source text: FIG. 21. Biological Activity of L2 Lariat and Cyclic Peptide. […] Error bars represent the standard deviation of three independent experiments.

[2] = system: SOS-regulated sulA promoter (sulA-GFP); assay: MMC-induced expression of sulA-GFP (SOS response genes), flow cytometry; assay type: cell-based, E. coli; settings: SMR6039-DE3 with pETIL-L2, IPTG-induced versus uninduced, 0.1 μg/mL MMC
Source text: as §1
We used the SMR6039 E. coli strain, which expresses GFP under the control of a SOS-regulated sulA promoter (Hastings, P. J. et al. (2004) PLoS Biol. 2:e399) to monitor induction of the SOS response pathway. We used the λDE3 Lysogenization Kit (Novagen) to modify SMR6039 to express T7 RNA polymerase, which allows expression of the L.2 lariat from the T7 promoter in pETIL-L2 plasmid. […] We measured the GFP fluorescence of the samples using flow cytometery (Epics X L, Coultier, Mississauga, ON). We scored cells as positive for SOS induction in they expressed more than one fluorescence unit of GFP.

[3] = His-tag lariat from pETIL-L2 in BL21-CP

LexA, sequence (P0A7C2 whole entry): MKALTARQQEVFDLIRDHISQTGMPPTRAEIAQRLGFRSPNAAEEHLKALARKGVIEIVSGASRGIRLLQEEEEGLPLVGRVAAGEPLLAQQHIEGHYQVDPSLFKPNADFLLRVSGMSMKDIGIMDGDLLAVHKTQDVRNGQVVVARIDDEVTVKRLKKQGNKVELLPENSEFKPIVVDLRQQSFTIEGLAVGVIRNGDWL

L2 lariat: anti-LexA lariat, lactone-cyclized noose sequence (RSWDLPGEY), expressed from Ssp DnaE lariat intein with Asn to Ala at IC−1 (G7)
viability with lariat expression plus MMC (BL21-CP cells; of the control, IPTG induction plus MMC 0.1 μg/mL): < 1% | viability on expression of the lariat alone (BL21-CP cells; of the uninduced controls, IPTG induction, no MMC, 0.85% NaCl): ~35% | fraction of product corresponding to hydrolyzed lariat (8669 Da) by MS [1, 3]: 85% | fraction of product corresponding to the L2 lariat (8651 Da) by MS [1, 3]: 15% | lariat cyclized prior to MS analysis ([1]; from fraction of 18O incorporated after Na18OH cleavage and trypsin digest): 46% | MMC-induced LexA cleavage (LexA): not observed after three hours | percentage of GFP expressing cells (sulA-GFP) after MMC [2]: decreases
